Patent publication US20200002406A1 (Janssen / Centocor, published 2020)

Tests used:
[1] = target: T1, neuraminidase (NA) of influenza A virus H5N1 A/Hong Kong/156/97 (Influenza A virus A/Hong Kong/156/97 …, UniProt Q9W7Y7 1-450); experiment: flow cytometry on 293-F cells transfected with NA
T1 construct: also called A/Hong Kong/156/97 (H5N1); NA of influenza virus A N1 subtype

[2] = target: T2, neuraminidase (NA) of influenza B virus B/Florida/04/2006 (Yamagata lineage) (Influenza B virus B/Florida/04/2006); experiment: cell-based or functional assay
[3] = target: T3, neuraminidase (NA) of influenza B virus B/Malaysia/2506/2004 (Victoria lineage) (Influenza B virus B/Malaysia/2506/2004); experiment: cell-based or functional assay
[4] = target: T2, neuraminidase (NA) of influenza B virus …; experiment: cell-based or functional assay; remark: listed apart in the source
[5] = target: T3, neuraminidase (NA) of influenza B virus …; experiment: cell-based or functional assay; remark: listed apart in the source
[6] = target: neuraminidase (NA) of influenza A virus H1N1 strain A/New Caledonia/20/1999 (Influenza A virus A/New …); experiment: cell-based or functional assay
[7] = target: neuraminidase (NA) of influenza A virus H3N2 strain A/Perth/16/2009 (Influenza A virus A/Perth/16/2009 (H3N2)); experiment: cell-based or functional assay
[8] = target: human FcγRIIIa receptor (FcγRIIIa V158) (human, UniProt P08637 17-254); experiment: cell-based or functional assay
human FcγRIIIa receptor (FcγRIIIa V158), sequence (P08637 17-254 F176V limits assumed): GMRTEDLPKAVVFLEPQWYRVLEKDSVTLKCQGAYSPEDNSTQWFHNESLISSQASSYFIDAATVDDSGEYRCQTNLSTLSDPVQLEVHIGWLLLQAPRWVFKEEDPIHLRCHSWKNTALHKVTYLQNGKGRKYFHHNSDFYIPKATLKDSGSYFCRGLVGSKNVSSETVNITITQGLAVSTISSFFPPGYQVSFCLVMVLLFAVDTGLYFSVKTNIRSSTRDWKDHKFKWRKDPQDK

T1 sequence (Q9W7Y7 whole entry): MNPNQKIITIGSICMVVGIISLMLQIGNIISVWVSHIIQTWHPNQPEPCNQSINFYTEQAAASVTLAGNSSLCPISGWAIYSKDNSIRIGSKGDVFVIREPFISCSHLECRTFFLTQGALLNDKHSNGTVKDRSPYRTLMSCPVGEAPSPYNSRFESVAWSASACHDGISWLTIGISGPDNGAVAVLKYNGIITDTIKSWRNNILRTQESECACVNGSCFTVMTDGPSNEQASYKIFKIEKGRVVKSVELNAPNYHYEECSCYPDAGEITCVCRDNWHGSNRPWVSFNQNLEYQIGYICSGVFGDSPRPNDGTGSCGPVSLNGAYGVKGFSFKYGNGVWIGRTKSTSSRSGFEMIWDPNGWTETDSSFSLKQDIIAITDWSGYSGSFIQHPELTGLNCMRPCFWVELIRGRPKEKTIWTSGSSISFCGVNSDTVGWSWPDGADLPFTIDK

B1: CR14011 (antibody, V domains shown)
VH: EVQLVETGGGVVQPGRSLRLSCSVSGFSFTTYAMHWVRQAPGKGLEWVAIISDDATKKYYADSVKGRFTISRDNSRNTLILQMNSLRAEDTGVYYCAKDGDPGYDSRYYYYYGMDVWGQGTTVTVSS
VL: SYVLTQPPSVSVAPGKTARITCGGNNIGSKSVHWYQQKPGQAPVLVIYYDSDRPSGIPERFSGSNSGNTATLTISRVEAGDEADYYCQVWDSSSDHPVFGGGTKLTVL
notes: also called sc14-011; anti-NA IgG
MFI [1]: < 250 mfi | Virus neutralization assay (VNA) on MDCK-SIAT1 cells, IC50 [2]: 2.21 µg/mL | Virus neutralization assay (VNA) on MDCK-SIAT1 cells, IC50 [3]: 1.19 µg/mL | Neuraminidase inhibition activity, EC50 (NA-XTD assay, whole virus) [4]: 0.004 µg/mL | Neuraminidase inhibition activity, EC50 (NA-XTD assay, whole virus) [5]: 0.013 µg/mL | Neuraminidase inhibition activity, EC50 (NA-XTD assay, whole virus) [6]: > 50 µg/mL | Neuraminidase inhibition activity, EC50 (NA-XTD assay, whole virus) [7]: > 50 µg/mL

B2: CR14012 (antibody, V domains shown)
VH: QVQLQESGGGVVQPGRSLRLSCAASGFSFSTYGMHWVRQAPGKGLEWVAVISYDGSNKYYADSVKGRFTISRDNAKNTLYLQMNSLRAEDTAVYYCGRDSGYTTNWYPGGYWGQGTLVTVSS
VL: not shown
notes: also called sc14-012; anti-NA IgG
MFI [1]: < 250 mfi

B3: CR14017 (antibody, V domains shown)
VH: EVQLVETGGGVVQPGRSLRLSCAASGFTFNTHAMHWVRQAPGKGLEWLAVISYDGNIKYYADSVKGRFTISRDSSKNTLYLLMNSLRAEDTAIYYCARDRGDYNYLPSDYWGQGTLVTVSS
VL: not shown
notes: also called sc14-017; anti-NA IgG
ADCC Reporter Bioassay EC50; A549 target cells infected with B/Lee/1940 [8]: 0.08 µg/mL | MFI [1]: < 250 mfi
